Amyloid nucleation score data for 56 substances are collected here from the supplement of paper PMC12042874.

± gives the uncertainty stated by the source.

The nature of the data set: amyloid nucleation score (Sup35N fusion, yeast selection) (log enrichment); library NNK1; higher = more nucleation; inactive = no reads after selection. The procedure, abridged:
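Growth for 7 days at 30°C on medium lacking adenine and uracil followed a 24-hour induction with 100 μM copper sulfate of psi-negative yeast expressing peptides of 20 random codons fused to Sup35N. Input and output plasmid inserts were sequenced with Illumina, and sequences with under 100 input reads were excluded. Nucleation score is the DiMSum log enrichment of output over input reads, centred on the mode score of non-aggregating sequences.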
The substance SSMMLDYCRSYCANISTKCQ registered an amyloid nucleation score of 0.675 ± 0.24.
In turn, SSRNSAAFLNHFDADRGLLP returned an amyloid nucleation score of 1.53 ± 0.14.
As for SSSFGHYDTWLYSSLFQGLT, the amyloid nucleation score is 3.46 ± 0.14.
SSSHPSLIGNLDTRLNWMTM came in with an amyloid nucleation score of 1.52 ± 0.32.
On to SSSVVSV, for which the amyloid nucleation score stood at 0.102 ± 0.33.
To SSSVYVVVEPDMNGLMGMRK belongs 0.08 ± 0.61; to SSSYVYYEGRFILTFGLF, -0.157 ± 0.47.
As for SSTGAVLIHNCTTRSVDLSG, the amyloid nucleation score is 0.45 ± 0.69.
In turn, SSTLFMKSYIFDPQKLNSPP registered an amyloid nucleation score of 0.375 ± 0.42.
In the case of SSVLVLHYRTSG, the amyloid nucleation score is 2.58 ± 0.09.
As to SSVYFSRFTERQKAVRETGS, the amyloid nucleation score result is “inactive”.
SSWLC gave an amyloid nucleation score of 1.4 ± 0.47.
Turning to SSYDWCWSHVCFK, the amyloid nucleation score was 0.8 ± 0.38.
To SSYNLKYLWGCIC belongs 7.263 ± 0.048; to SSYVNRDCAFLWDD, 2.75 ± 0.19; to STDMYVPVPDTDWIICLRQL, -0.23 ± 0.56.
For the substance STDSCVALSMATWF, the amyloid nucleation score is 0.188 ± 0.46.
For STFMSILTSESTMRNGITNR, the amyloid nucleation score entry is “inactive”.
As to STKKLYTILRHWSYDFAESG, the amyloid nucleation score is -0.509 ± 1.7.
In the case of STKQFFRLAFRGPWKTGHKP, the amyloid nucleation score is 0.273 ± 0.96.
Turning to STKWLFGKNGVSLYLLSRRR, the amyloid nucleation score came out at 2.58 ± 0.13.
With STLFSWNRRNCDTHVLLVPW, the amyloid nucleation score result is “inactive”.
Take STPNRLGPMPSWVGSTEAVV: the amyloid nucleation score is -0.474 ± 1.1.
The substance STRDQSDVMDRLTGEHHQQW gave an amyloid nucleation score of 0.363 ± 0.41.
To STTILCLLI belongs 5.21 ± 0.061; to STTIPRVFGSTYNSYNVSIS, 0.384 ± 0.34; to STTPQRLNFDMSTPISWIRQ, 0.173 ± 0.32.
As to STTYCFFSYAGLRICYALMG, the amyloid nucleation score was determined as 1.3 ± 0.2.
Regarding STVRSAPFSWLPGKYGWSKC, the amyloid nucleation score is -0.214 ± 0.98.
For STYTALIFLHRSVFDLPSVQ the value was 0.787 ± 0.68.
As for SVCILHMRRSCVGKPPKYNA, the amyloid nucleation score entry was “inactive”.
In turn, SVELGSGLMMWGTNSKLTVV displayed an amyloid nucleation score of 0.649 ± 0.76.
For SVGYH, the amyloid nucleation score turned out to be 0.699 ± 0.59.
For SVILIGRRDDHASSIRVIGS the value was -0.752 ± 0.69.
Regarding SVIRDWLSGACSGTTEGRRT, the amyloid nucleation score is -0.295 ± 0.43.
To SVLCHCVLNVWLGWHLWIDP belongs 0.707 ± 0.53; to SVLGSHSRAKLITAWPTRKI, “inactive”; to SVLKSITPNGPLLFSYVCSI, -1.56 ± 0.58.
The substance SVLTGNVTGDDGLCKSSIYA yielded an amyloid nucleation score of 0.515 ± 0.34.
Consider SVLYRINP, for which the amyloid nucleation score was -1.55 ± 2.4.
As for SVMAGSYITPVRMRKKKLFV, the amyloid nucleation score result was “inactive”.
Substance SVNLNFLFAL had an amyloid nucleation score of 8.056 ± 0.056.
In the case of SVPDVVSYTKDTVVFNFGFT, the amyloid nucleation score stood at 3.31 ± 0.083.
To SVRVHFMVRHGLGVRLSASD belongs 1.61 ± 0.16; to SVRYYLLYHNFIMSSADKLS, 6.485 ± 0.05; to SVSLFMITVFNVTC, 2.4 ± 0.14.
For SVVLCMNCGGCLMEIKGGGY the value was 4.89 ± 0.096.
In the case of SVWDGFSLRYPSLVYLRCGS, the amyloid nucleation score was -0.634 ± 0.71.
On to SVYWKYLYP, for which the amyloid nucleation score turned out to be 1.98 ± 0.098.
Turning to SWCLKDMSNMLLASIRRFVL, the amyloid nucleation score entry is “inactive”.
With SWDSLGHYNGAIE, the amyloid nucleation score is -0.268 ± 0.54.
For SWHLDWFTYPFNKSD, the amyloid nucleation score result was “inactive”.
On to SWSLALL, for which the amyloid nucleation score is -0.278 ± 0.85.
Regarding SWTGMNSHSLKKHLGI, the amyloid nucleation score is -0.447 ± 0.93.
To SYAFLCNGSSRGLIIAMVLT belongs -0.057 ± 0.29.
For SYAYKLETNSRFMIQWKVQY the value was 3.48 ± 0.092.
